From paper PMC2973826, “Translation Elongation Factor 1A Facilitates the Assembly of the Tombusvirus Replicase and Stimulates Minus-Strand Synthesis” (PLoS Pathogens, 2010) come the findings set out here.

The target of the test is T1, MBP-tagged TCV p88C (lacking the p28-overlapping domain from the N-terminus) (Turnip crinkle virus, UniProt P17460 252-775).
T1 sequence: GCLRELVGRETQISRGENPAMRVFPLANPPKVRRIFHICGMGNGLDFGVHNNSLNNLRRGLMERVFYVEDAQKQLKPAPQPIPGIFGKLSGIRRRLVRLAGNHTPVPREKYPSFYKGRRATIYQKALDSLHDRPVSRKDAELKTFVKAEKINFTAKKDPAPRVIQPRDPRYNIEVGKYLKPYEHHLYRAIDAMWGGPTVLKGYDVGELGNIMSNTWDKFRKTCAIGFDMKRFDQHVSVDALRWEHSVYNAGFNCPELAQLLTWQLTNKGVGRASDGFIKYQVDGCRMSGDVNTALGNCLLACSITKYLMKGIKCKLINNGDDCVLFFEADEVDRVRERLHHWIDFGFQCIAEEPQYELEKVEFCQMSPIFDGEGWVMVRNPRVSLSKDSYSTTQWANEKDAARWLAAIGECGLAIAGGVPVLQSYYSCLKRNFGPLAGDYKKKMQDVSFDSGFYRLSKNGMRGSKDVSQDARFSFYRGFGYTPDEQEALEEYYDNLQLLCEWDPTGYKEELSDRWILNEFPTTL
Description: cell-based or functional assay.

B1: eukaryotic translation elongation factor 1A (eEF1A), wild type (natural protein, S. cerevisiae, UniProt P02994 1-458, looked up)
chain: MGKEKSHINVVVIGHVDSGKSTTTGHLIYKCGGIDKRTIEKFEKEAAELGKGSFKYAWVLDKLKAERERGITIDIALWKFETPKYQVTVIDAPGHRDFIKNMITGTSQADCAILIIAGGVGEFEAGISKDGQTREHALLAFTLGVRQLIVAVNKMDSVKWDESRFQEIVKETSNFIKKVGYNPKTVPFVPISGWNGDNMIEATTNAPWYKGWEKETKAGVVKGKTLLEAIDAIEQPSRPTDKPLRLPLQDVYKIGGIGTVPVGRVETGVIKPGMVVTFAPAGVTTEVKSVEMHHEQLEQGVPGDNVGFNVKNVSVKEIRRGNVCGDAKNDPPKGCASFNATVIVLNHPGQISAGYSPVLDCHTAHIACRFDELLEKNDRRSGKKLEDHPKFLKSGDAALVKFVPSKPMCVEAFSEYPPLGRFAVRDMRQTVAVGVIKSVDKTEKAAKVTKAAQKAAKK
With B1, the “in vitro (−)RNA synthesis by the TCV RdRp on a TBSV (+)RNA template after pre-incubation of purified wt eEF1A with the TCV RdRp” value is approximately 5 fold.
